Assay results taken from patent US20210032312A1 (Janssen / Centocor, published 2021).
Changes are numbered by the printed parent chain. Names may count otherwise.

Columns and labels:
[1] = target: T1, human CD8A-Fc (recombinant human CD8 alpha fused to Fc fragment of human IgG1) (human, UniProt P01732 22-182, limits assumed); assay: SPR (ProteOn), captured hCD8A-Fc, heterogeneous ligand fit, lower affinity population
T1 construct: SPR ligand, captured by goat anti-human Fc; also called hCD8A-Fc; recombinant CD8 alpha; not shown: linker with flag (and polyhistidine) tag and Fc fragment of human IgG1; depends on which of the two constructs was used
Procedure: (§1) Human CD8A-Fc was then captured at five surface densities ranging from 200 to 1200 response units, leaving the 6th channel as empty channel control for GAH-Fc IgG surface. Binding was measured by flowing five different concentrations of anti-CD8A FN3 domains (1 μM diluted in a 3-fold dilution series) as analytes simultaneously in the horizontal orientation over the captured hCD8A-Fc surfaces, with a sixth analyte channel containing only running buffer PBST. All interactions were measured at 100 uL/min flow rate with association and dissociation times being 4, 30 minutes respectively. […] Data analyses were performed using Bio-Rad ProteOn Manager software (version 3.1.0.6). Raw data were double referenced by subtraction of the interspot (empty chip surface, no protein immobilized or captured) signals to correct the non-specific binding of the FN3 domain to the pre-coated GAH-Fc IgG surface, followed by a double referencing using the buffer blank response (to correct for any baseline drift resulting from ligand dissociation over time). […] Given that the GAH-Fc capture of hCD8A-Fc format is the least disruptive relative to other formats in introducing potential experimental artifacts (such as ligand activity loss and/or artificial eptiopes/heterogeneous ligand population due to amine coupling), it is considered that the results from the GAH-Fc capture experiments reported here represent the most reliable ProteOn SPR data, despite the non-conforming 1:1 Langmuir fits observed in many instances. A heterogeneous ligand model was chosen to fit the data assuming two different ligand species, either due to the heterogeneity in the ligand protein population or due to potential different mechanisms for each FN3 domain binding to the 2 hCD8A monomers in the Fc fusion protein.

[2] = target: T1, human CD8A-Fc (recombinant human CD8 …); assay: SPR (ProteOn), captured hCD8A-Fc, heterogeneous ligand fit, higher affinity population
Procedure: as §1

[3] = target: T1, human CD8A-Fc (recombinant human CD8 …); assay: SPR on recombinant human CD8 alpha after DFO conjugation, lower affinity population
Procedure: (§2) Data analyses were performed using Bio-Rad ProteOn Manager software (version 3.1.0.6). Raw data were double referenced by subtraction of the interspot (empty chip surface, no protein immobilized or captured) signals to correct the non-specific binding of the FN3 domain to the pre-coated GAH-Fc IgG surface, followed by a double referencing using the buffer blank response (to correct for any baseline drift resulting from ligand dissociation over time). […] Given that the GAH-Fc capture of hCD8A-Fc format is the least disruptive relative to other formats in introducing potential experimental artifacts (such as ligand activity loss and/or artificial eptiopes/heterogeneous ligand population due to amine coupling), it is considered that the results from the GAH-Fc capture experiments reported here represent the most reliable ProteOn SPR data, despite the non-conforming 1:1 Langmuir fits observed in many instances. A heterogeneous ligand model was chosen to fit the data assuming two different ligand species, either due to the heterogeneity in the ligand protein population or due to potential different mechanisms for each FN3 domain binding to the 2 hCD8A monomers in the Fc fusion protein. In this case, because each anti-CD8A FN3 domain would have separate affinities, the resultant sensorgram reflects the sum of two independent reactions with two sets of rate constants, which were reported for each FN3 domain binding.
(§3) Following conjugation to DFO, the binding of each anti-CD8A FN3 domain to recombinant human CD8 alpha was assessed by surface plasmon resonance as previously described. All samples retained tight binding to human CD8A following mutation of E54 to Cys and conjugation to DFO (Table 8).

[4] = target: T1, human CD8A-Fc (recombinant human CD8 …); assay: SPR on recombinant human CD8 alpha after DFO conjugation, higher affinity population
Procedure: as §2, §3

[5] = target: T1, human CD8A-Fc (recombinant human CD8 …); assay: SPR, dissociation rate on recombinant CD8 alpha

T1 sequence (P01732 22-182 limits assumed): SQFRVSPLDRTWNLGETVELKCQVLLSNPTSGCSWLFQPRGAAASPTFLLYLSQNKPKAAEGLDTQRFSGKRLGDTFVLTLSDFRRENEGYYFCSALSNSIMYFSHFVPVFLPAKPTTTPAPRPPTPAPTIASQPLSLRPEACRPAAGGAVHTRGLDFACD

B1: P283AR9P1362_D6 (designed binder)
chain: LPAPKNLVVSRVTEDSARLSWAKRPGAFDSFLIQYQESEKVGEAIVLTVPGSERSYDLTGLKPGTEYTVSIYGVDVKYDIDSRPISSNPLSAIFTT
notes: FN3 domain (Centyrin); purified as His-tagged protein, tag not in the entry
[1]
  Kd: 0.98 nM
  koff: 3.12e-05 s⁻¹
  kon: 56200 M⁻¹ s⁻¹
[2]
  Kd: 0.03 nM
  koff: 1e-06 s⁻¹
  kon: 155000 M⁻¹ s⁻¹

B2: CD8S369-DFO (designed binder)
chain: B1 chain with E53C
modifications: deferoxamine (DFO) conjugated to the free cysteine introduced by E54C
notes: DFO conjugate of CD8S369
[3]
  Kd: ≤ 3.4 nM
  koff: ≤ 1e-05 s⁻¹
  kon: 2870 M⁻¹ s⁻¹
[4]
  Kd: ≤ 0.3 nM
  koff: ≤ 1e-05 s⁻¹
  kon: 37300 M⁻¹ s⁻¹

B3: CD8S365-DFO (designed binder)
chain: LPAPKNLVVSRVTEDSARLSWTAPDAAFDSFGILYYEPVDSGEAITLPVPGSCRSYDLTGLKPGTEYWVVITGVKGGAPSTPLGTIFTT
modifications: deferoxamine (DFO) conjugated to the free cysteine introduced by E54C
notes: DFO conjugate of CD8S365
[3]
  Kd: 9.73 nM
  koff: 4.29e-05 s⁻¹
  kon: 4410 M⁻¹ s⁻¹
[4]
  Kd: 0.6 nM
  koff: 4.18e-05 s⁻¹
  kon: 68000 M⁻¹ s⁻¹

B4: CD8S390 (designed binder)
chain: B3 chain with C53E, W68Y
notes: W68Y mutant of P282ER9P1360_C8; the entry holds the mutation
[5]
  koff: 0.000152 s⁻¹

B5: CD8S391 (designed binder)
chain: B3 chain with C53E, W68H
notes: W68H mutant of P282ER9P1360_C8; the entry holds the mutation
[5]
  koff: 0.00032 s⁻¹

B6: CD8S405 (designed binder)
chain: B3 chain with P48T, C53E
notes: P48T mutant of P282ER9P1360_C8; the entry holds the mutation
[5]
  koff: 0.00114 s⁻¹

B7: CD8S389 (designed binder)
chain: B3 chain with C53E, W68F
notes: W68F mutant of P282ER9P1360_C8; the entry holds the mutation
[5]
  koff: 0.000184 s⁻¹

B8: CD8S370-DFO (designed binder)
chain: LPAPKNLVVSRVTEDSARLSWTAPDAAFDSFAITYIEKEHIEDGEAIVLTVPGSCRSYDLTGLKPGTEYWVPIWGVKGGANSWPLSAIFTT
modifications: deferoxamine (DFO) conjugated to the free cysteine introduced by E54C
notes: DFO conjugate of CD8S370
[3]
  Kd: 13 nM
  koff: 7.65e-05 s⁻¹
  kon: 5910 M⁻¹ s⁻¹
[4]
  Kd: ≤ 0.3 nM
  koff: ≤ 2e-05 s⁻¹
  kon: 46400 M⁻¹ s⁻¹

B9: CD8S378 (designed binder)
chain: B8 chain with D43E, C55E
notes: D43E mutant of P282DR9P1359_G7; the entry holds the mutation
[5]
  koff: 5.8e-05 s⁻¹

B10: CD8S383 (designed binder)
chain: B8 chain with C55E, W74Y
notes: W74Y mutant of P282DR9P1359_G7; the entry holds the mutation
[5]
  koff: 0.000747 s⁻¹

B11: CD8S380 (designed binder)
chain: B8 chain with C55E, W70Y
notes: W70Y mutant of P282DR9P1359_G7; the entry holds the mutation
[5]
  koff: 0.00121 s⁻¹

B12: CD8S382 (designed binder)
chain: B8 chain with C55E, W70S
notes: W70S mutant of P282DR9P1359_G7; the entry holds the mutation
[5]
  koff: 0.247 s⁻¹

B13: CD8S388 (designed binder)
chain: B8 chain with C55E, N81Q
notes: N81Q mutant of P282DR9P1359_G7; the entry holds the mutation
[5]
  koff: 7.54e-05 s⁻¹

B14: CD8S387 (designed binder)
chain: B8 chain with C55E, W83E
notes: W83E mutant of P282DR9P1359_G7; the entry holds the mutation
[5]
  koff: 0.000125 s⁻¹

B15: CD8S381 (designed binder)
chain: B8 chain with C55E, W70F
notes: W70F mutant of P282DR9P1359_G7; the entry holds the mutation
[5]
  koff: 0.0002 s⁻¹

B16: CD8S379 (designed binder)
chain: B8 chain with D43S, C55E
notes: D43S mutant of P282DR9P1359_G7; the entry holds the mutation
[5]
  koff: 4.97e-05 s⁻¹

B17: CD8S366-DFO (designed binder)
chain: LPAPKNLVVSRVTEDSARLSWTAPDAAFDSFWITYPEWPDPGGEAIVLTVPGSCRSYDLTGLKPGTEYFVVIYGVKGGEIYSPLSAIFTT
modifications: deferoxamine (DFO) conjugated to the free cysteine introduced by E54C
notes: DFO conjugate of CD8S366
[3]
  Kd: 18.2 nM
  koff: 0.000106 s⁻¹
  kon: 5850 M⁻¹ s⁻¹
[4]
  Kd: 0.9 nM
  koff: 7.01e-05 s⁻¹
  kon: 79500 M⁻¹ s⁻¹

B18: CD8S404 (designed binder)
chain: B17 chain with P36A, C54E
notes: P36A mutant of P282DR9P1359_C5; the entry holds the mutation
[5]
  koff: 0.0309 s⁻¹

B19: CD8S402 (designed binder)
chain: B17 chain with D40P, C54E
notes: D40P mutant of P282DR9P1359_C5; the entry holds the mutation
[5]
  koff: 4.84e-05 s⁻¹

B20: CD8S401 (designed binder)
chain: B17 chain with W38I, C54E
notes: W38I mutant of P282DR9P1359_C5; the entry holds the mutation
[5]
  koff: 0.0127 s⁻¹

B21: CD8S367-DFO (designed binder)
chain: LPAPKNLVVSRVTEDSARLSWTAPDAAFDSFAIAYPEWPPQGEAIVLTVPGSCRSYDLTGLKPGTEYFVVIYGVKGGSYSAPLSAIFTT
modifications: deferoxamine (DFO) conjugated to the free cysteine introduced by E54C
notes: DFO conjugate of CD8S367
[3]
  Kd: 89.1 nM
  koff: 0.000975 s⁻¹
  kon: 10900 M⁻¹ s⁻¹
[4]
  Kd: 1.55 nM
  koff: 0.000131 s⁻¹
  kon: 84500 M⁻¹ s⁻¹

B22: CD8S375 (designed binder)
chain: B21 chain with A32Q, Q41P, C53E, V70I, Y72Q, S78V, Y79E, A81L
notes: W81L mutant of P282DR9P1359_F5; the entry holds the mutation
[5]
  koff: 0.00083 s⁻¹

B23: CD8S371 (designed binder)
chain: B21 chain with A32Q, W38Y, Q41P, C53E, V70I, Y72Q, S78V, Y79E, A81W
notes: Printed as W48Y mutant of P282DR9P1359_F5; the entry holds the mutation
[5]
  koff: 0.000194 s⁻¹

B24: CD8S403 (designed binder)
chain: B21 chain with P36A, C53E
notes: P36A mutant of P282DR9P1359_F7; the entry holds the mutation
[5]
  koff: 0.000133 s⁻¹

B25: CD8S394 (designed binder)
chain: B21 chain with W38I, C53E
notes: W38I mutant of P282DR9P1359_F7; the entry holds the mutation
[5]
  koff: 0.00355 s⁻¹

B26: CD8S374 (designed binder)
chain: B21 chain with A32Q, Q41P, C53E, V70I, Y72Q, S78V, Y79E, A81Y
notes: W81Y mutant of P282DR9P1359_F5; the entry holds the mutation
[5]
  koff: 0.000403 s⁻¹

B27: CD8S373 (designed binder)
chain: B21 chain with A32Q, W38I, Q41P, C53E, V70I, Y72Q, S78V, Y79E, A81W
notes: Printed as W48I mutant of P282DR9P1359_F5; the entry holds the mutation
[5]
  koff: 0.00403 s⁻¹

B28: CD8S393 (designed binder)
chain: B21 chain with W38L, C53E
notes: W38L mutant of P282DR9P1359_F7; the entry holds the mutation
[5]
  koff: 0.00255 s⁻¹

B29: CD8S392 (designed binder)
chain: B21 chain with W38Y, C53E
notes: W38Y mutant of P282DR9P1359_F7; the entry holds the mutation
[5]
  koff: 0.00155 s⁻¹

B30: CD8S372 (designed binder)
chain: B21 chain with A32Q, W38L, Q41P, C53E, V70I, Y72Q, S78V, Y79E, A81W
notes: Printed as W48L mutant of P282DR9P1359_F5; the entry holds the mutation
[5]
  koff: 0.000571 s⁻¹

B31: CD8S377 (designed binder)
chain: B21 chain with A32Q, Q41P, C53E, V70I, Y72Q, S78V, Y79E, A81E
notes: W81E mutant of P282DR9P1359_F5; the entry holds the mutation
[5]
  koff: 0.0004 s⁻¹

B32: CD8S376 (designed binder)
chain: B21 chain with A32Q, Q41P, C53E, V70I, Y72Q, S78V, Y79E, A81S
notes: W81S mutant of P282DR9P1359_F5; the entry holds the mutation
[5]
  koff: 0.000846 s⁻¹

B33: CD8S395 (designed binder)
chain: B21 chain with W38H, C53E
notes: W38H mutant of P282DR9P1359_F7; the entry holds the mutation
[5]
  koff: 0.00189 s⁻¹

B34: CD8S368-DFO (designed binder)
chain: B21 chain with A32Q, Q41P, V70I, Y72Q, S78V, Y79E, A81W
modifications: deferoxamine (DFO) conjugated to the free cysteine introduced by E54C
notes: DFO conjugate of CD8S368
[3]
  Kd: 13.6 nM
  koff: 9.98e-05 s⁻¹
  kon: 7320 M⁻¹ s⁻¹
[4]
  Kd: 0.23 nM
  koff: 2.53e-05 s⁻¹
  kon: 108000 M⁻¹ s⁻¹
